Test results reported in article doi:10.1101/2023.02.13.526773.

Assays:
[1] = target: FLAG-tagged GFP11-CHAMP-1 fusion (N-terminal GFP11); assay: split reporter
[2] = target: mEpoR-TM2 (isotope-labelled recombinant mEpoR TM domain fragment) (mouse); assay: SDS-PAGE

mEpoR-GFP1-10 fusion protein (domain or fragment)
fold MFI over cells expressing either fusion alone [1]: > 4 fold

mEpoR-TM2 (isotope-labelled recombinant mEpoR TM domain fragment) (domain or fragment)
stoichiometry N [2]: 2
